From patent publication US20240052034A1 (PANDION OPERATIONS, published 2024) come the findings set out here.

Where “and” joins values, the source holds several entries; their conditions need not be identical. Equal entries are not always repeated.

One test addresses T1, mouse PD-1 (mouse, UniProt Q02242 25-167, limits assumed).
T1 sequence (looked up): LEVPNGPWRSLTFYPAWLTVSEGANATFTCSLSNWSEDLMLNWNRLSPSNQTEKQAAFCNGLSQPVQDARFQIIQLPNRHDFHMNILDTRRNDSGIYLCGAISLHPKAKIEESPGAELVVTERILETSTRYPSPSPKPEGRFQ
Put plainly: BLI (biosensor): test article on anti-human IgG Fc tips, PD-1 in solution. Here is the method: (§1) Anti-human IgG Fc (AHC) biosensors were equilibrated in assay buffer for 20 minutes. Test articles were diluted to 10 μg/mL in assay buffer (lx PBS, 1% BSA, 0.05% Tween20). A seven-point serial dilution of human PD-1 was prepared in assay buffer, starting at 1000 nM down to 15.625 nM (human PD-1) or 2000 nM down to 31.25 nM (mouse PD-1). Test articles were loaded on tips for 180 s followed by a 180 s association phase with PD-1 and 180 s dissociation phase in assay buffer.
(§2) Anti-human IgG Fc (AHC) biosensors were equilibrated in assay buffer for 20 minutes. Test article was diluted to 10 μg/mL in assay buffer (lx PBS, 1% BSA, 0.05% Tween20). A seven-point serial dilution of human PD-1 was prepared in assay buffer, starting at 1000 nM down to 15.625 nM (human and cyno PD-1) or 2000 nM down to 31.25 nM (mouse PD-1). Test article was loaded on tips for 180 s followed by a 180 s association phase with PD-1 and 180 s dissociation phase in assay buffer.

The next test concerns the target T2, cynomolgus PD-1 (cynomolgus, UniProt B0LAJ3 25-170).
T2 construct: also called cyno PD-1
The test is described as above. The protocol: as §1, §2

The target in another test is T3, human PD-1 (human, UniProt Q15116 25-167, limits assumed).
T3 construct: also called huPD-1
The description is as above. Here is the method:
as §1, §2

Test [1] has as its target PD-1 on PD-1 reporter Jurkat cells (UniProt Q15116 25-288, limits assumed). Put plainly: cell-based or functional assay.
The target of test [2] is T4, Fc-tagged cynomolgus PD-1 (cynomolgus, UniProt B0LAJ3 25-170).
T4 construct: Printed 'Fe-tagged', read as Fc-tagged; also called cyno PD-1; Fe-tagged cynomolgus PD-1 (so in the source)
Put plainly: BLI (biosensor): Fc-tagged PD-1 on anti-human IgG Fc tips, fragment in solution. Here is the method: (§3) Anti-human IgG Fc (AHC) or Streptavidin (SA) biosensor were equilibrated in assay buffer for 20 minutes. Fe-tagged mouse and cynomolgus PD-1 was diluted to 5 μg/mL and biotinylated huPD-1 article was diluted to 0.5 μg/mL in assay buffer (1×PBS, 1% BSA, 0.05% Tween20). […] PD-1 was loaded on tips for 180 s followed by a 180 s association phase with PD-1 and 180 s dissociation phase in assay buffer.

The target of another test is T5, Fc-tagged mouse PD-1 (mouse, UniProt Q02242 25-167, limits assumed).
T5 construct: Printed 'Fe-tagged', read as Fc-tagged; also called Fe-tagged mouse PD-1 (so in the source); not shown: Fc tag
T5 sequence (looked up): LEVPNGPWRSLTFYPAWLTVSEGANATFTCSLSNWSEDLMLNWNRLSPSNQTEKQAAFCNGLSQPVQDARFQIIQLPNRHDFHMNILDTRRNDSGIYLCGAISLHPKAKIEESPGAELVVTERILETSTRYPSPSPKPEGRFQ
Described as above. The protocol: as §3

The next test concerns the target T6, biotinylated huPD-1 (human, UniProt Q15116 25-167, limits assumed, biotinylated (site not stated)).
T6 construct: also called human PD-1
Put plainly: BLI (biosensor): biotinylated huPD-1 on streptavidin tips, fragment in solution. Here is the method:
as §3

T3 sequence (Q15116 25-167 limits assumed): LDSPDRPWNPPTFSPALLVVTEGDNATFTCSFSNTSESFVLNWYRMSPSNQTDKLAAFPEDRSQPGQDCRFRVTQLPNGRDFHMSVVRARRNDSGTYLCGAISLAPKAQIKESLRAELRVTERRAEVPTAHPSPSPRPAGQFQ
Chain of PD-1 on PD-1 reporter Jurkat cells (Q15116 25-288 limits assumed): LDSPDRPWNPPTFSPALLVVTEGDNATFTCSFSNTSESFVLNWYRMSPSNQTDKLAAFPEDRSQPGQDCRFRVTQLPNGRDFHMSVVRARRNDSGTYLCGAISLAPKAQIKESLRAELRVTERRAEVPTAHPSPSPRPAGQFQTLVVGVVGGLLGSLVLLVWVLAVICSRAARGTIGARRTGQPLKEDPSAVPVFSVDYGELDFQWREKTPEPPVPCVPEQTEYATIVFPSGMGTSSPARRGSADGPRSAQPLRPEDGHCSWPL
T4 sequence (B0LAJ3 entry or part of it limits assumed): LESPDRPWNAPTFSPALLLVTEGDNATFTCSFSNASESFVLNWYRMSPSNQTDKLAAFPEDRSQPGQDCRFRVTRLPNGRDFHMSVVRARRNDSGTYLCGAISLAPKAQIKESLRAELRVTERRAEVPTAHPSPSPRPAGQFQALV
T2 sequence (B0LAJ3 entry or part of it limits assumed): as above
T6 sequence (Q15116 25-167 limits assumed): as the sequence (Q15116 25-167 limits assumed) above

B1: PD1AB53 (bispecific antibody, human IgG1, kappa)
heavy: EVQLLESGGGLVQPGGSLRLSCAASGFTFSSYDMSWVRQAPGKGLEWVSGITISGGSTYYADSVKGRFTISRDNSKNTLYLQMNSLRAEDTAVYYCARGRGGSGWLDYWGQGTTVTVSSASTKGPSVFPLAPSSKSTSGGTAALGCLVKDYFPEPVTVSWNSGALTSGVHTFPAVLQSSGLYSLSSVVTVPSSSLGTQTYICNVNHKPSNTKVDKKVEPKSCDKTHTCPPCPAPEAAGAPSVFLFPPKPKDTLMISRTPEVTCVVVDVSHEDPEVKFNWYVDGVEVHNAKTKPREEQYNSTYRVVSVLTVLHQDWLNGKEYKCKVSNKALPAPIEKTISKAKGQPREPQVYTLPPSREEMTKNQVSLTCLVKGFYPSDIAVEWESNGQPENNYKTTPPVLDSDGSFFLYSKLTVDKSRWQQGNVFSCSVMHEALHNHYTQKSLSLSPGGGGSEGGGSEGGGSEDIQMTQSPSSLSASVGDRVTITCQASRDIKNYLAWYQQKPGKAPKLLIYAASSLQSGVPSRFSGSGSGTDFTLTISSLQPEDFATYYCQQSYSTPPTFGCGTKVDIKGGGGSGGGGSGGGGSGGGGSEVQLVQSGAEVKKPGASVKVSCKASGYSFTTYYMHWVRQAPGQCLEWMGIINPSGGSTSYAQKFQGRVTMTRDTSTSTVYMELSSLRSEDTAVYYCASGWVYWGQGTLVTVSS
light: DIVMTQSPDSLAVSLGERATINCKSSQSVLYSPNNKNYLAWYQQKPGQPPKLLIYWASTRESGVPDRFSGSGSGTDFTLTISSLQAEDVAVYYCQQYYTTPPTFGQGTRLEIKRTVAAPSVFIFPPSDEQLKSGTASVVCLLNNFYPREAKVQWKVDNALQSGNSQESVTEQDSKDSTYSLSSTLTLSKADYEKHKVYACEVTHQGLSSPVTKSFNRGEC
One may read the koff as the rate constant with which the complex falls apart. As a reminder, the kon is the rate constant with which the complex forms. The low end stands for slow association, the high end for fast association. As usually defined, the Kd is the concentration at which binding is half-saturated. A low value points to higher affinity. As for B1, in the test with mouse PD-1, the koff was 0.0228 s⁻¹ and 0.0657 s⁻¹; the kon is 5940 M⁻¹ s⁻¹ and 2670 M⁻¹ s⁻¹; the response amounted to 0.0367. Moreover, in the test with cynomolgus PD-1, binding was put at a Kd of 13.5 nM, the off-rate constant (koff) worked out at 0.000531 s⁻¹ and the kon stood at 39400 M⁻¹ s⁻¹. In the test with human PD-1, the kon is 67600 M⁻¹ s⁻¹ and 41300 M⁻¹ s⁻¹; the response was determined as 0.227. In test [1], the “EC50 of SHP-2 recruitment, PD-1 reporter Jurkat cells, Ig-tethered test article on anti-human IgG coated plates” value (“EC50 … on anti-human IgG coated plates” for short) stood at 4.83 nM and the “EC50 of SHP-2 recruitment, PD-1 reporter Jurkat cells, soluble test article” value (shortened to “EC50 of SHP-2 recruitment … soluble test article”) was 1.21 nM.

B2: scFv moiety of the PD1AB38 (scFv)
scFv: EVQLLESGGGLVQPGGSLRLSCAASGFTFSSYDMSWVRQAPGKGLEWVSGITISGGSTYYADSVKGRFTISRDNSKNTLYLQMNSLRAEDTAVYYCARGRGGSGWLDYWGQGTTVTVSSGGGGSGGGGSGGGGSGGGGSDIVMTQSPDSLAVSLGERATINCKSSQSVLYSPNNKNYLAWYQQKPGQPPKLLIYWASTRESGVPDRFSGSGSGTDFTLTISSLQAEDVAVYYCQQYYTTPPTFGQGTRLEIK
notes: also called PD1AB38 scFv
In the case of B2, in test [2], the Kd turned out to be 58.6 nM. The binding result with Fc-tagged mouse PD-1 is “no binding”.

B3: Fab moiety of the PD1AB37 (Fab, V domains shown)
VH: EVQLVQSGAEVKKPGASVKVSCKASGYSFTSYYMHWVRQAPGQGLEWMGIINPSGGSTSYAQKFQGRVTMTRDTSTSTVYMELSSLRSEDTAVYYCASGWVYWGQGTLVTVSS
VL: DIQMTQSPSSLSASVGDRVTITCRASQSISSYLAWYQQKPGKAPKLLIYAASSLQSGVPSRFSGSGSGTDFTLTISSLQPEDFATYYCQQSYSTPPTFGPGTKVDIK
notes: also called PD1AB37 Fab
B3: the results for the Kd (in test [2]; with Fc-tagged mouse PD-1; with biotinylated huPD-1) were 497 nM, 1350 nM and 330 nM, respectively.

B4: Fab moiety of the PD1AB38 (Fab, V domains shown)
VH: EVQLVQSGAEVKKPGASVKVSCKASGYSFTTYYMHWVRQAPGQGLEWMGIINPSGGSTSYAQKFQGRVTMTRDTSTSTVYMELSSLRSEDTAVYYCASGWVYWGQGTLVTVSS
VL: DIQMTQSPSSLSASVGDRVTITCQASRDIKNYLAWYQQKPGKAPKLLIYAASSLQSGVPSRFSGSGSGTDFTLTISSLQPEDFATYYCQQSYSTPPTFGPGTKVDIK
notes: also called PD1AB38 Fab
For the molecule B4, the figures for the equilibrium dissociation constant (Kd) (in test [2]; in the test with Fc-tagged mouse PD-1; in the test with biotinylated huPD-1) were 172 nM, 176 nM and 140 nM, respectively.

B5: PD1AB38 (bispecific antibody, human IgG1, kappa)
heavy: EVQLVQSGAEVKKPGASVKVSCKASGYSFTTYYMHWVRQAPGQGLEWMGIINPSGGSTSYAQKFQGRVTMTRDTSTSTVYMELSSLRSEDTAVYYCASGWVYWGQGTLVTVSSASTKGPSVFPLAPSSKSTSGGTAALGCLVKDYFPEPVTVSWNSGALTSGVHTFPAVLQSSGLYSLSSVVTVPSSSLGTQTYICNVNHKPSNTKVDKKVEPKSCDKTHTCPPCPAPEAAGAPSVFLFPPKPKDTLMISRTPEVTCVVVDVSHEDPEVKFNWYVDGVEVHNAKTKPREEQYNSTYRVVSVLTVLHQDWLNGKEYKCKVSNKALPAPIEKTISKAKGQPREPQVYTLPPSREEMTKNQVSLTCLVKGFYPSDIAVEWESNGQPENNYKTTPPVLDSDGSFFLYSKLTVDKSRWQQGNVFSCSVMHEALHNHYTQKSLSLSPGGGGGSGGGGSGGGGSEVQLLESGGGLVQPGGSLRLSCAASGFTFSSYDMSWVRQAPGKGLEWVSGITISGGSTYYADSVKGRFTISRDNSKNTLYLQMNSLRAEDTAVYYCARGRGGSGWLDYWGQGTTVTVSSGGGGSGGGGSGGGGSGGGGSDIVMTQSPDSLAVSLGERATINCKSSQSVLYSPNNKNYLAWYQQKPGQPPKLLIYWASTRESGVPDRFSGSGSGTDFTLTISSLQAEDVAVYYCQQYYTTPPTFGQGTRLEIK
light: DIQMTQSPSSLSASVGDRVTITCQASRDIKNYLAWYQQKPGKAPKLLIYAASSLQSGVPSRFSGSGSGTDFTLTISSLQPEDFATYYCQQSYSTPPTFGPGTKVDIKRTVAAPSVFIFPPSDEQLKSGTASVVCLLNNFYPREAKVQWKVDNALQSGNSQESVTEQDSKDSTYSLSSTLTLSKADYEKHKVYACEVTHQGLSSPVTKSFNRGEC
Take B5: in the test with mouse PD-1, the dissociation constant (Kd) was 979 nM, the off-rate constant (koff) was 0.0229 s⁻¹ and the on-rate constant (kon) came to 23400 M⁻¹ s⁻¹. Moreover, in test [1], the “EC50 … on anti-human IgG coated plates” value was found to be 20.9 nM and the “EC50 of SHP-2 recruitment … soluble test article” value is 0.302 nM.

B6: PD1AB37 (bispecific antibody, human IgG1, kappa)
heavy: EVQLVQSGAEVKKPGASVKVSCKASGYSFTSYYMHWVRQAPGQGLEWMGIINPSGGSTSYAQKFQGRVTMTRDTSTSTVYMELSSLRSEDTAVYYCASGWVYWGQGTLVTVSSASTKGPSVFPLAPSSKSTSGGTAALGCLVKDYFPEPVTVSWNSGALTSGVHTFPAVLQSSGLYSLSSVVTVPSSSLGTQTYICNVNHKPSNTKVDKKVEPKSCDKTHTCPPCPAPEAAGAPSVFLFPPKPKDTLMISRTPEVTCVVVDVSHEDPEVKFNWYVDGVEVHNAKTKPREEQYNSTYRVVSVLTVLHQDWLNGKEYKCKVSNKALPAPIEKTISKAKGQPREPQVYTLPPSREEMTKNQVSLTCLVKGFYPSDIAVEWESNGQPENNYKTTPPVLDSDGSFFLYSKLTVDKSRWQQGNVFSCSVMHEALHNHYTQKSLSLSPGGGGGSGGGGSGGGGSEVQLLESGGGLVQPGGSLRLSCAASGFTFSSYDMSWVRQAPGKGLEWVSGITISGGSTYYADSVKGRFTISRDNSKNTLYLQMNSLRAEDTAVYYCARGRGGSGWLDYWGQGTTVTVSSGGGGSGGGGSGGGGSGGGGSDIVMTQSPDSLAVSLGERATINCKSSQSVLYSPNNKNYLAWYQQKPGQPPKLLIYWASTRESGVPDRFSGSGSGTDFTLTISSLQAEDVAVYYCQQYYTTPPTFGQGTRLEIK
light: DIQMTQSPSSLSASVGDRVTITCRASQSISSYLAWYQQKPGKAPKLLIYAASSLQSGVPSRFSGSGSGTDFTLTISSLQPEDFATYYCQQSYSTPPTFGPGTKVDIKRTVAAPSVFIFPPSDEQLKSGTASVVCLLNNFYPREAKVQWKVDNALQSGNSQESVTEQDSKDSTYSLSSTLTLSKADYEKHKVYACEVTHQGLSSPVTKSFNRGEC
As for B6, in the test with mouse PD-1, the Kd was determined as 4860 nM, the koff worked out at 0.0245 s⁻¹ and the on-rate (kon) turned out to be 5050 M⁻¹ s⁻¹. In the test with cynomolgus PD-1, this molecule registered a Kd of 15.4 nM, a koff of 0.000566 s⁻¹ and a kon of 36800 M⁻¹ s⁻¹. In the test with human PD-1, this molecule registered an equilibrium dissociation constant (Kd) of 18.3 nM, an off-rate (koff) of 0.000824 s⁻¹ and an association rate constant (kon) of 45000 M⁻¹ s⁻¹. For the same molecule, in test [1], the “EC50 … on anti-human IgG coated plates” value came out at 24.5 nM and the “EC50 of SHP-2 recruitment … soluble test article” value is 0.37 nM.

B7: PD1AB43 (bispecific antibody, human IgG1, kappa)
heavy: QVQLVQSGAEVKKPGASVKVSCKASGYSFTTYYMHWVRQAPGQGLEWMGIIAPSGGSTSYAQKFQGRVTMTRDTSTSTVYMELSSLRSEDTAVYYCASGWVYWGQGTLVTVSSASTKGPSVFPLAPSSKSTSGGTAALGCLVKDYFPEPVTVSWNSGALTSGVHTFPAVLQSSGLYSLSSVVTVPSSSLGTQTYICNVNHKPSNTKVDKKVEPKSCDKTHTCPPCPAPEAAGAPSVFLFPPKPKDTLMISRTPEVTCVVVDVSHEDPEVKFNWYVDGVEVHNAKTKPREEQYNSTYRVVSVLTVLHQDWLNGKEYKCKVSNKALPAPIEKTISKAKGQPREPQVYTLPPSREEMTKNQVSLTCLVKGFYPSDIAVEWESNGQPENNYKTTPPVLDSDGSFFLYSKLTVDKSRWQQGNVFSCSVMHEALHNHYTQKSLSLSPGGGGGSGGGGSGGGGSEVQLLESGGGLVQPGGSLRLSCAASGFTFSSYDMSWVRQAPGKGLEWVSGITISGGSTYYADSVKGRFTISRDNSKNTLYLQMNSLRAEDTAVYYCARGRGGSGWLDYWGQGTTVTVSSGGGGSGGGGSGGGGSGGGGSDIVMTQSPDSLAVSLGERATINCKSSQSVLYSPNNKNYLAWYQQKPGQPPKLLIYWASTRESGVPDRFSGSGSGTDFTLTISSLQAEDVAVYYCQQYYTTPPTFGQGTRLEIK
light: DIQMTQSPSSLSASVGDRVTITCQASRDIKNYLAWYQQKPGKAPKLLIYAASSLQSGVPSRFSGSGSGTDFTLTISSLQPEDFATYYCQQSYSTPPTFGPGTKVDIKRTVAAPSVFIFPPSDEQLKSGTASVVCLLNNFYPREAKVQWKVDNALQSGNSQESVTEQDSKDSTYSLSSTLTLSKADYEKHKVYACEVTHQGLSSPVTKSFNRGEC
B7: in the test with mouse PD-1, the equilibrium dissociation constant (Kd) worked out at 1430 nM, the off-rate constant (koff) stood at 0.0404 s⁻¹, the on-rate constant (kon) was 28200 M⁻¹ s⁻¹ and the response was 0.0546. In test [1], the “EC50 … on anti-human IgG coated plates” value came out at 8.51 nM and the “EC50 of SHP-2 recruitment … soluble test article” value was 0.574 nM.
